# Literature values in paper PMC6176727.
# Key:
# [1] = target: CLV1 ectodomain (Arabidopsis thaliana) (UniProt Q9SYQ8)
# [2] = target: CLV1 (Arabidopsis thaliana) (UniProt Q9SYQ8)
substance,measurement,setting,value
CLV3p (13-amino-acid) (from UniProt Q9XF04),Kd,[1],1 nM
same,Kd,[2],280 nM
